Measured values as given in patent publication US20210292423A1 (published 2021).
Changes are numbered by the printed parent chain.

B1: 6B10-E4 anti-CD123 rat IgG (hybridoma supernatant) (antibody, V domains shown)
VH: EVQLVESGGGLVQPGRSLKLSCAASGFTFSHYNMAWVRQAPKKGLEWVATITYDDHSTYYRDSVKGRFTISRDTAKSTLYLQMDSLRSEDTATYYCARLVNYAFAYWGQGTLVTVSS
VL: NIVMTQSPKSMSISVGDRVTMNCKASQTVGNNIAWYQQKPGLSPQLLIDYASNRYTGVPNRFTGGGYGTDFILTINSVQAEDAAFYYCQRMYNSPTFGGGTKLELK
notes: rat IgG; also called BFX - 6B10
B2: 2B8-F3 anti-CD123 rat IgG (hybridoma supernatant) (antibody, V domains shown)
VH: EVQLVESGGGLVQPGRSLKLSCAASGFTFSDYNMAWVRQAPKKGLEWVATILYDGGRTYYRGSVKGRFTISRDNAKSTLYLRMDSLRSEDTATYYCATHSRGTDYFDYWGQGVMVTVSS
VL: EIVLTQSPTSMTASPGEQVTITCRASSSINYMHWYQQKPGASPRPWIYETSKLASGVPDRFSGSASGTSYSLTINNMEAEDAATYYCQQWNYPSWTFGGGTKLELK
notes: rat IgG; also called BFX - 2B8
B3: 5A5-B4 anti-CD123 rat IgG (hybridoma supernatant) (antibody, V domains shown)
VH: QIQIVQSGSDVTSTCNGCGTCYFSGFSLSTTGICVSWIRQPSGKGQEWLADFCWDDGKGYNPSLKNRLSISKDTSNNQVFLKITSVDTADTATYYCARRRVYYGIYFDYWGQGVMVTVSS
VL: DIVMTQSPALAVSPGERVSISCRASNSVSTRMHWYQQKPGQQPKLLIYGASNLESGVPARFSGSGSGTDFTLTIDPVEADDIATYFCQQSWNDPLTFGSGTKLEIK
notes: rat IgG; also called BFX - 5A5
B4: 2F8-D6 anti-CD123 rat IgG (hybridoma supernatant) (antibody, V domains shown)
VH: QVQLKESGPGLVQPSQTLSLTCTVSGFSLTSYGVSWVRQPPGKGLEWIATISSAGSTYYDLVLKSRLSITRDTSKSQVFLKVHSLQTEDTAIYLCARDAPVFNYGSYNAMDSWGQGTSVTVSS
VL: DIQMTQSPSFLSATVGDRVTINCKASQNINKYLNWYQQKLGEAPKRLIYNTNSLQTGIPSRFSGSGSGTDYTLTISSLQPEDVATYFCLQHKSGLTFGSGTKLEIK
notes: rat IgG; also called BFX - 2F8
B5: 1E1-G5 anti-CD123 rat IgG (hybridoma supernatant) (antibody, V domains shown)
VH: QVQLQESGPTLVKPGDSVKMSCKAFGYTFTDHIIHWVKQSHGKSLEWIGYINPYSGGTNYNEKFKSKATLTVDKSSSTAYMEFSRLTSEDSAICYCALNYGSYYAMDAWGQGTSVTVSS
VL: DIQMTQSPASLSASLGQTVTIECRPSEDIYSNLAWFQQKPGSSPQLLIYDANNLADGVPSRFSGSGSGTQYSLKINSLQSEDVASYFCQQYNKYPYTFGTGTKLELK
notes: rat IgG; also called BFX - 1E1
B6: 3E3-D3 anti-CD123 rat IgG (hybridoma supernatant) (antibody, V domains shown)
VH: QVQLQESGPGLVQPSQTLSLTCTVSGFSLTTYDVHWVRQPPGKGLEWMGRIQNGGITDYNSALKSRLIISRDTSKSQVFLKMNSVQTEDTAMYFCAKTGSYFYAFDHWGQGTLVTVSS
VL: QFVLTQPNSVSTNLGSTVKLSCKRNTGNIGSNYVNWYQQHEGRSPTTMIYRDDKRPDGVPDRFSGSIDRSSNSALLTINNVQTEDEADYFCQSYSSGINIIFGGGTKLTVL
notes: rat IgG; also called BFX - 3E3
B7: 6C10-C4 anti-CD123 rat IgG (hybridoma supernatant) (antibody, V domains shown)
VH: EVKLQESGPSLVQPSETLSLTCTVSGFSLTSYSVHWVRQHSGKSLEWMGRMWNDGDTSYNSAFTSRLSISRDTSKGQVFLKMNSLQTEDTGTYYCARGHRTPFDYWGQGVMVTVSS
VL: DIVMTQSPSSLAVSAGETVTINCKSSQSFLSSGDERNYVAWYQHKPGQSPKLLIYWASTRHSGVPDRFIGSGSGTDFTLTISSVQAEDLAIYYCQQYYDTPLTFGSGTKLEIK
notes: rat IgG; also called BFX - 6C10
B8: 3B10-E6 anti-CD123 rat IgG (hybridoma supernatant) (antibody, V domains shown)
VH: QVQLQQSGPELRRPGSSVRLSCKASGYRIKDFLIHWIKNRPEHGLEWIGWIDPEDGETKYAQKFQTKATLTADTSSNTAYMQLSSLTSEDTATYFCARWGDVYYGLMRGHVMDAWGQGTSVTVSS
VL: DVLMTQTPVSLPVSLGGQVSISCRSSQSLVHSDGDTYLHWYLQKPGQSPQLLIYRVSNRFSGVPDRFSGSGSGTDFTLKISRVEPEDLGLYYCLQTTHFPPWTFGGGTKLEMK
notes: rat IgG; also called BFX - 3B10
B9: 6D6-B8 anti-CD123 rat IgG (hybridoma supernatant) (antibody, V domains shown)
VH: B5 VH with F25S, G26A, H32N, E46D, E62G, K63W, K65R, E89D, C94Y
VL: DIQMTQSPASLSASLGETVTIDCRPSEDIFNNLAWYQQKPGNSPQLLIYDANSLADGVPSRFSGSGSGTQYSLMIIRLQSEDVASYFCHQYNIYPYTFGAGTKLELK
notes: rat IgG; also called BFX - 6D6
B10: 5B1-G2 Fab (Fab, V domains shown)
VH: EVQVVETGGSLVQPGKSLKLTCATSGFSFSNAWMHWVRQSPEKQLEWVAQIKDKANNYATYYAESVKGRFTISRDDSKGSIYLQMNSLKEEDTAVYYCRGLYYGLFPSDYWGQGVMVTVSS
VL: DVVMTQTPVSLSVSLGGQVSISCRSSQSLVHNNGNTYLSWYLLKPGQSPQLLIYKVSNRFSGISDRFSGGGSGTDFTLKISRLEPDDLGIYYCGQGTQYPFTFGSGTKLEIK
B11: 12D2-E5 Fab (Fab, V domains shown)
VH: EVKLVESGGGLVQPGRSLRLSCAASGFNFYAYWMGWVRQAPGKGLEWIGEIKKDGTTINYTPSLKDRFTISRDNAQNTLYLQMTKLGSEDTALYYCAREERDGYFDYWGQGVMVTVSS
VL: QFVLTQPNSVSTNLGSTVKLSCKRSTGNIGSNYVNWYQQHEGRSPTTMIYRDDKRPDGVPDRFSGSIDRSSNSALLTINNVQTEDEADYFCQSYSSGIVFGGGTKLTVL
B12: 3H6-D2 anti-CD3 antibody (hybridoma supernatant) (antibody, V domains shown)
VH: EVQLVETGGRLVQPGKSLKLTCATSGFTFSNAWMHWVRQSPEKQLEWVAQIKDKSNNYATYYAESVKGRFTISRDDSKSIIYLQMNSLKEEDTAIYYCRALTYYGYKRDAMDGWGHGTSVTVSS
VL: B10 VL with L43Q, G70S, L83V, I90V, S105A, I111L
notes: rat IgG in hybridoma supernatant
B13: 18G9-H11 anti-CD3 antibody (hybridoma supernatant) (antibody, V domains shown)
VH: EVQLVETGGSLVQPGKSLKLTCATSGFTFSNAWIQWVRQSPEKQLEWVAQIKAKSNNYATYYAESVKGRFTISRDDSKSSVYLQMNSLKEEDTALYYCTWRHYYSSHTMDAWGQGTLVTVSS
VL: B10 VL with L43Q, G70S, L83V, E84A, D86T, I90V, T97S, S105A, I111L
notes: as for B12
B14: 16F8-A7 anti-CD3 antibody (hybridoma supernatant) (antibody, V domains shown)
VH: VETGGNLVQPGKSLKLTCATSGFTFSNAWMHWVRQSPEKQLEWVAQIKAKSNNYATYYAESVKGRFTISRDDSKSSVYLQMNSLKEEDTAIYYCRYVNYGLAPMDVWGQGTSVTVSS
VL: B10 VL with L43Q, I63F, G70S, L83V, I90V, S105A, I111L
notes: as for B12

Biological target: T1, human CD123 Strep-II tagged Fc-fusion protein (human)
T1 construct: also called human CD123-Fc; recombinant CD123
Experiment: SPR Proteon XPR36, rat IgG captured, CD123-Fc analyte
Description: (§1) Screening of anti-CD123 rat IgGs for binding affinities to human CD123 and cross-reactivities to cyno CD123 was performed with hybridoma supernatants using a Proteon XPR36 (Biorad) in a one-shot kinetics approach. A capture assay was established using a goat anti-rat IgG (112-005-071, Jackson Immuno Research). The capture antibody was coated on GLC chips (176-5011, Biorad) to approx. 8000 RU in the vertical direction using the amine coupling kit (176-2410, Biorad). […] Binding kinetics with human and cyno CD123-Fc fusion protein was measured at 100 μl/min in the horizontal direction with 120 sec. and 600 sec. for association and dissociation, respectively. The CD123-Fc proteins were used in twofold dilutions from 6 nM to 100 nM. PBSET buffer (176-2730, Biorad) was used as assay buffer. Regeneration was achieved by injection of 10 mM Glycine buffer pH 1.5 for 18 sec at 30 μl/min. Data processing and analysis was performed using ProteonManager software v3.0. Fitting of the sensorgrams was done with a 1:1 Langmuir model.

T1 sequence (chain, as listed by the source limits assumed): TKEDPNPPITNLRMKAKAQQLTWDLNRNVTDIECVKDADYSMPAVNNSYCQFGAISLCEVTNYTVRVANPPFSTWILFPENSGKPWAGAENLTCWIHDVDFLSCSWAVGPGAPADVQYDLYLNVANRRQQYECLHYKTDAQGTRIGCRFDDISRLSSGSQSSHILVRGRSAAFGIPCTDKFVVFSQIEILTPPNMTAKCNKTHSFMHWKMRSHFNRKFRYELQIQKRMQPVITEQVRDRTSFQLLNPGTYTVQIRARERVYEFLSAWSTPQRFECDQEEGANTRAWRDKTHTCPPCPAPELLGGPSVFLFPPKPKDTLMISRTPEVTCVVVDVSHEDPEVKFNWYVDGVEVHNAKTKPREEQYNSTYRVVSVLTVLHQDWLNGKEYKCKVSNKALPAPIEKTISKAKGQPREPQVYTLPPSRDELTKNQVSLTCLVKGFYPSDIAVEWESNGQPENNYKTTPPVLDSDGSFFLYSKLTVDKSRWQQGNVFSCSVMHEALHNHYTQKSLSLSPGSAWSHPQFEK

| Kd | koff | kon | Binder |
| --- | --- | --- | --- |
| 150 pM | 1.5e-05 s⁻¹ | 230000 M⁻¹ s⁻¹ | B1 |
| 18 pM | 1.2e-05 s⁻¹ | 660000 M⁻¹ s⁻¹ | B2 |
| 1100 pM | 0.00012 s⁻¹ | 130000 M⁻¹ s⁻¹ | B3 |
| 530 pM | 6.6e-05 s⁻¹ | 130000 M⁻¹ s⁻¹ | B4 |
| 230 pM | 0.00011 s⁻¹ | 460000 M⁻¹ s⁻¹ | B5 |
| 400 pM | 6.4e-05 s⁻¹ | 160000 M⁻¹ s⁻¹ | B6 |
| 750 pM | 0.00014 s⁻¹ | 180000 M⁻¹ s⁻¹ | B7 |

Biological target: T2, Macaca fascicularis CD123 Fc-fusion protein (Macaca fascicularis)
T2 construct: also called cyno CD123-Fc
Experiment: as above
Description: as §1

T2 sequence (chain, as listed by the source limits assumed): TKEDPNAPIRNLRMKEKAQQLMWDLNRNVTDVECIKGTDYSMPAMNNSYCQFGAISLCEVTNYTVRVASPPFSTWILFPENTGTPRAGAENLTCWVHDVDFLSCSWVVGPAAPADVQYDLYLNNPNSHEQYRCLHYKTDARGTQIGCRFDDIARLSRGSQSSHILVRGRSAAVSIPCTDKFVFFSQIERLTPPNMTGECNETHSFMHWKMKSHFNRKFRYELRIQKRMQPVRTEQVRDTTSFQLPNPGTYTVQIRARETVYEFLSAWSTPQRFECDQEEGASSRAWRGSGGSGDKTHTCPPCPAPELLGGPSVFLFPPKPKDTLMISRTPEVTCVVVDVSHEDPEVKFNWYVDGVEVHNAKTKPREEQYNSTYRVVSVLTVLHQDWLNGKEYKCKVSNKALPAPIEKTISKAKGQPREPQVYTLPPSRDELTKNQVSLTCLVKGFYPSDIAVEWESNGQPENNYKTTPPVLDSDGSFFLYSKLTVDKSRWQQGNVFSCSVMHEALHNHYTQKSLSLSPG

| Kd | Binder |
| --- | --- |
| 100 pM | B1 |
| 770 pM | B2 |
| 50 pM | B3 |
| 510 pM | B4 |
| 720 pM | B5 |
| 120 pM | B6 |
| 790 pM | B7 |
| 270 pM | B8 |

Biological target: T3, human CD123 (IL3RA) on cells (human, UniProt P26951 19-378)
T3 construct: also called CD123 transfected HEK293; THP-1
Experiment: flow cytometry, CD123 transfected HEK293, hybridoma supernatant
Description: Cells were resuspended in 200 μl Stain Buffer with FBS per well and were measured using the MACSQuant (Miltenyi Biotec) or LSRII (BD) flow cytometer. Further data analyses were performed using the FlowJo software (Tree Star, Inc.). Read out was percentage of cells positive for antibody binding. Cells treated only with the secondary but no primary antibody were used to set the gates. Curves were calculated by XLfit (Algorithm 205).

T3 sequence (P26951 19-378): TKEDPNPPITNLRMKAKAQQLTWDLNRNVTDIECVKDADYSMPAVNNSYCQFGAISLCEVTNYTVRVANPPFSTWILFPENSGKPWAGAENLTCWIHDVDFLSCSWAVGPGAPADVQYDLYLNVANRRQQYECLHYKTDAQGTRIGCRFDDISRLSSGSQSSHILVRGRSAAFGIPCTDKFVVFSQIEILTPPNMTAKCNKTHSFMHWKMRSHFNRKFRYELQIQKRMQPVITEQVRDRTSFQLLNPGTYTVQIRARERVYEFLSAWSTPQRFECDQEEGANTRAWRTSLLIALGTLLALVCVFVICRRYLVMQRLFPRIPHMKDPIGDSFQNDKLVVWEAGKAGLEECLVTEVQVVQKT

| EC50 | Binder |
| --- | --- |
| 5 ng/mL | B1 |
| 5.5 ng/mL | B2 |
| 10.1 ng/mL | B3 |
| 3.4 ng/mL | B4 |
| 2.2 ng/mL | B5 |
| 0.9 ng/mL | B9 |
| 2 ng/mL | B6 |
| 6.1 ng/mL | B7 |
| 2 ng/mL | B8 |

Biological target: T4, human CD3δ expressed alone on HEK293F cells (human, UniProt P04234 22-171)
T4 construct: entry includes the signal peptide; also called huCD3δ
Experiment: flow cytometry, HEK293F transfected with huCD3δ
Description: To analyze binding of antibodies to human CD3ε and human CD3δ expressed on the surface of cells, HEK293F cells were transfected with both constructs either alone or in co-transfection and signals were measured by flow cytometry. For transfection procedure FuGENE HD Transfection Reagent (Promega, #E2311) was used according to manufacturer's protocol.
Cells were incubated on a shaker at 37° C. and 5% CO2. At day one to three after transfection cells were harvested and binding of antibodies was analyzed by flow cytometry.
Antibodies for staining were seeded at 1 μg in 50 μl per well Stain Buffer with FBS (BD Pharmingen) in 96-well U-bottom suspension culture plates (Greiner bio-one). Harvested transfected cells were resuspended in Stain Buffer with FBS and were added at 50 μl per well to the antibodies. Cells were incubated at 4° C. in the dark for 30 min and were washed twice. 0.5 μg secondary antibody Goat F(ab′)2 Anti-Human IgG-FITC (Beckman Coulter, #732598) or Goat F(ab′)2 Anti-Human kappa-PE (Southern Biotech, #206209), respectively, in combination with 0.5 μg 7-AAD per well was added in 100 μl Stain Buffer with FBS. Cells were incubated at 4° C. in the dark for 15 min and were washed twice. For measurement, cells were resuspended in 200 μl Stain Buffer with FBS. Cells were measured using the MACSQuant (Miltenyi Biotec) or LSRII (BD) flow cytometer, respectively. Further data analyses were performed using the FlowJo software (Tree Star, Inc.).

T4 sequence (P04234 22-171 limits assumed, stated change not applied): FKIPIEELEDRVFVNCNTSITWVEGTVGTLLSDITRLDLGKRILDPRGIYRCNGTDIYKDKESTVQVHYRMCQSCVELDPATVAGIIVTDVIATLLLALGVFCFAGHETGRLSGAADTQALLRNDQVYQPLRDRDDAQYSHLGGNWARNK

| Binder | binding result |
| --- | --- |
| B10 | no binding (tested: <20% of binding of huCD3e + huCD3d) |
| B11 | no binding (tested: <20% of binding of huCD3e + huCD3d) |

Biological target: T5, human CD3ε/δ-Fc fusion protein (soluble recombinant CD3ε/δ complex) (human, UniProt P04234 22-105)
T5 construct: also called huCD3ε/δ; huCD3; not shown: hinge, CH2, CH3 of human IgG with tag
Experiment: SPR single point, hybridoma supernatant
Description: Rats with positive sera were scarified and B cells were fused with mouse myeloma cells. The resulting hybrndomas were screened on HEK293 cells transfected with human or cynomoligus CD3ε and CD3δ expression plasmids, on Jurkat E6.1 (CD3+) and Jurkat T3.5 (CD3-) by flow cytometry. Supernatant of Hybridoma clones was used to assess by surface plasmon resonance single point kinetic against human and Macaca fascicularis CD3ε/δ complex by fixing the analyte at 25 nM (data presented in table 3).

T5 sequence (chain, as listed by the source mutant, chain 1 of 2): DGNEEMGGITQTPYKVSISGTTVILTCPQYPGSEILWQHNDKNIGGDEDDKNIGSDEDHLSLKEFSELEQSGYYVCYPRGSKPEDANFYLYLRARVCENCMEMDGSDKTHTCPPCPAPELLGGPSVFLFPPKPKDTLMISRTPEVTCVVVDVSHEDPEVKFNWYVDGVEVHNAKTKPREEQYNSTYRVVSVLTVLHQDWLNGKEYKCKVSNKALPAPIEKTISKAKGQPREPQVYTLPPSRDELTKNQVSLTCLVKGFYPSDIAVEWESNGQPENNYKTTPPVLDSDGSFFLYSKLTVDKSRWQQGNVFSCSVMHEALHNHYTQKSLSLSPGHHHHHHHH
T5 sequence (P04234 22-105, stated change not applied, chain 2 of 2): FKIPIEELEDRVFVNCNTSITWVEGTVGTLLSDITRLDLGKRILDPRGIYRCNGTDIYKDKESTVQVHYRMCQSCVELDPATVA

| RU at 25 nM | Binder |
| --- | --- |
| 9.5 RU | B12 |
| 7 RU | B13 |
| 17.5 RU | B14 |
